Laboratory results as given in patent publication CN115433278A.

T1: CS1 FC融合标签蛋白 (CS1 Fc fusion tag protein, expressed in 293F cells) (UniProt Q9NQ25)
T1 sequence (looked up): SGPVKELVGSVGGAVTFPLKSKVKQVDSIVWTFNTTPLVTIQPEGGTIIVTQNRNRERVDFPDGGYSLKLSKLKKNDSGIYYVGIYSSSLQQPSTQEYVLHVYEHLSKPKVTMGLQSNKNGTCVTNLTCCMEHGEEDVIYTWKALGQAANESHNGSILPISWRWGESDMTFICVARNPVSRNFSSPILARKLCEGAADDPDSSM


Tests used:
[1] = biological target: T1, CS1 FC融合标签蛋白 (CS1 Fc fusion tag protein, expressed in 293F cells); experiment: ELISA, CS1 protein coated at 1 ug/ml, purified antibody at dilution 125K
[2] = biological target: T1, CS1 FC融合标签蛋白 (CS1 Fc fusion tag protein, expressed in 293F cells); experiment: ELISA, CS1 protein coated at 1 ug/ml, purified antibody at dilution 625K
[3] = biological target: T1, CS1 FC融合标签蛋白 (CS1 Fc fusion tag protein, expressed in 293F cells); experiment: ELISA, CS1 protein coated at 1 ug/ml, purified antibody at dilution 25K
[4] = biological target: T1, CS1 FC融合标签蛋白 (CS1 Fc fusion tag protein, expressed in 293F cells); experiment: ELISA, CS1 protein coated at 1 ug/ml, purified antibody at dilution 15625k
[5] = biological target: T1, CS1 FC融合标签蛋白 (CS1 Fc fusion tag protein, expressed in 293F cells); experiment: indirect ELISA, CS1 protein coated at 1 ug/ml, B cell culture supernatant, goat anti-rabbit IgG-HRP
[6] = biological target: T1, CS1 FC融合标签蛋白 (CS1 Fc fusion tag protein, expressed in 293F cells); experiment: ELISA, CS1 protein coated at 1 ug/ml, purified antibody at dilution 3125k
[7] = biological target: T1, CS1 FC融合标签蛋白 (CS1 Fc fusion tag protein, expressed in 293F cells); experiment: ELISA, CS1 protein coated at 1 ug/ml, purified antibody at dilution 1K
[8] = biological target: T1, CS1 FC融合标签蛋白 (CS1 Fc fusion tag protein, expressed in 293F cells); experiment: ELISA, CS1 protein coated at 1 ug/ml, purified antibody at dilution 5K

Row | ELISA OD [1] | ELISA OD [2] | ELISA OD [3] | ELISA OD [4] | OD450值 [5] [OD450] | ELISA OD [6] | ELISA OD [7] | ELISA OD [8] | Binder
1 | 1.18 | 0.32 | 2.39 | 0.11 | 1.52 | 0.153 | 3.95 | 3.83 | 命名为1H2的兔重组单克隆抗体 (rabbit recombinant monoclonal antibody 1H2) (antibody, V domains shown) VH: QSVEESRGGLIKPTDTLTLTCTVSGFSLSNYGVSWVRQAPGNGLEYIGFIGTIGATLYANWAKSRSTITRNTNLNTVTLKMTSLTAADTATYFCARGIYGDIYVYAFDIWGPGTLVTVSS VL: AAVLTQTPSPVSAAVGGTVTISCQASQSVRDNGDLAWYQQKPGQPPKLLIYDVSALASGVPSRFKGRGSGTQFTLTISDLECDDAATYSCAGGYIAGSDRWVFGGGTEVVVK
2 | 0.98 | 0.276 | 2.91 | 0.108 | 2.03 | 0.161 | – | 3.95 | 命名为2B3的兔重组单克隆抗体 (rabbit recombinant monoclonal antibody 2B3) (antibody, V domains shown) VH: QSVEESGGRLVTPGTPLTLTCTVSGFSLSAYAMGWFRQAPGKGLEYIGIISDSASTFYATWAKGRFTISRTSSTMVDLKMTSPTTEDTATYFCARAYYVVDNDSPFNMWGPGTVVTVS VL: VMTQTPSSVSAAVGGTVTINCQASENIYSSLAWYQQKPGQPPKLLIYAASKLESGVPSRFKGSRSETDFTLTISDLECDDAATYYCQSYYDTGRASFAFGGGTEVVVK
3 | 2.02 | 0.522 | 3.45 | 0.124 | 2.13 | 0.209 | – | – | 命名为1D12的兔重组单克隆抗体 (rabbit recombinant monoclonal antibody 1D12) (antibody, V domains shown) VH: QSVEESGGRLVTPGTPLTLTCTVSGFSLSSYGMIWVRQAPGKGLEWIGSINTDGSTYYATWAKGRFTISRTSTTVDLKITSPTTEDTATYFCARGYPGYITDSYYYFNIWGPGTLVTVS VL: DVVLTQTPASVEAAVRGTVTIKCQASQSISSYLSWYQQKPGQPPKLLIYRASTLESGVPSRFKGSGSGTEFTLTITDLECADAATYYCQCTYGTFHSSGYGFGGGTGVVVK
